According to patent US20180044434A1 (PUBLIC UNIVERSITY CORPORATION YOKOHAMA CITY UNIVERSITY, published 2018):
Where a chain is given by its changes, count along the chain named. Blank lines part the entries; values can stand above or below the binder they belong to.

Tests used:
[1] = target: T1, TA0096 (peptide antigen corresponding to positions 340 to 356 of PAD4); test: ELISA, coated peptide
T1 peptide: EENMDDQWMQDEMEIGY

[2] = target: T2, Ala mutant of TA0096, SEQ ID NO: 27; test: ELISA, coated peptide
T2 peptide: AENMDDQWMQDEMEIGY

[3] = target: T3, Ala mutant of TA0096, SEQ ID NO: 28; test: ELISA, coated peptide
T3 peptide: EANMDDQWMQDEMEIGY

[4] = target: T4, Ala mutant of TA0096, SEQ ID NO: 29; test: ELISA, coated peptide
T4 peptide: EEAMDDQWMQDEMEIGY

[5] = target: T5, Ala mutant of TA0096, SEQ ID NO: 30; test: ELISA, coated peptide
T5 peptide: EENADDQWMQDEMEIGY

[6] = target: T6, Ala mutant of TA0096, SEQ ID NO: 31; test: ELISA, coated peptide
T6 peptide: EENMADQWMQDEMEIGY

[7] = target: T7, Ala mutant of TA0096, SEQ ID NO: 33; test: ELISA, coated peptide
T7 peptide: EENMDDAWMQDEMEIGY

[8] = target: T8, Ala mutant of TA0096, SEQ ID NO: 34; test: ELISA, coated peptide
T8 peptide: EENMDDQAMQDEMEIGY

[9] = target: T9, Ala mutant of TA0096, SEQ ID NO: 35; test: ELISA, coated peptide
T9 peptide: EENMDDQWAQDEMEIGY

[10] = target: T10, Ala mutant of TA0096, SEQ ID NO: 36; test: ELISA, coated peptide
T10 peptide: EENMDDQWMADEMEIGY

[11] = target: T11, Ala mutant of TA0096, SEQ ID NO: 37; test: ELISA, coated peptide
T11 peptide: EENMDDQWMQAEMEIGY

[12] = target: T12, Ala mutant of TA0096, SEQ ID NO: 38; test: ELISA, coated peptide
T12 peptide: EENMDDQWMQDAMEIGY

[13] = target: T13, Ala mutant of TA0096, SEQ ID NO: 39; test: ELISA, coated peptide
T13 peptide: EENMDDQWMQDEAEIGY

[14] = target: T14, Ala mutant of TA0096, SEQ ID NO: 40; test: ELISA, coated peptide
T14 peptide: EENMDDQWMQDEMAIGY

[15] = target: T15, Ala mutant of TA0096, SEQ ID NO: 41; test: ELISA, coated peptide
T15 peptide: EENMDDQWMQDEMEAGY

[16] = target: T16, Ala mutant of TA0096, SEQ ID NO: 42; test: ELISA, coated peptide
T16 peptide: EENMDDQWMQDEMEIAY

[17] = target: T17, Ala mutant of TA0096, SEQ ID NO: 43; test: ELISA, coated peptide
T17 peptide: EENMDDQWMQDEMEIGA

[18] = target: T18, Ala mutant having 3-amino acid substitution, SEQ ID NO: 44; test: ELISA, coated peptide
T18 peptide: AAAMDDQWMQDEMEIGY

[19] = target: T19, Ala mutant having 3-amino acid substitution, SEQ ID NO: 45; test: ELISA, coated peptide
T19 peptide: EENAAAQWMQDEMEIGY

[20] = target: T20, Ala mutant having 3-amino acid substitution, SEQ ID NO: 47; test: ELISA, coated peptide
T20 peptide: EENMDDQWMAAAMEIGY

[21] = target: T21, Ala mutant having 3-amino acid substitution, SEQ ID NO: 48; test: ELISA, coated peptide
T21 peptide: EENMDDQWMQDEAAAGY

[22] = target: T22, Ala mutant having 3-amino acid substitution, SEQ ID NO: 49; test: ELISA, coated peptide
T22 peptide: EENMDDQWMQDEMEIAA

[23] = target: full-length recombinant human or mouse PAD4 (species used for Table 7 and FIG. 7 not stated); test: cell-based or functional assay
[24] = target: T23, full-length recombinant mouse PAD4 (mouse, UniProt Q9Z183 1-666); test: ELISA, coated mouse PAD4; antibody 1 ug/mL
T23 construct: mature; Full-length recombinant

[25] = target: T23, full-length recombinant mouse PAD4; test: ELISA, coated mouse PAD4; antibody 0.25 ug/mL
[26] = target: T24, full-length recombinant human PAD4 (human, UniProt Q9UM07 1-663); test: ELISA, coated human PAD4; antibody 0.0625 ug/mL
T24 construct: Full-length recombinant; also called peptidylarginine deiminase 4

[27] = target: T23, full-length recombinant mouse PAD4; test: ELISA, coated mouse PAD4; antibody 0.015625 ug/mL
[28] = target: T24, full-length recombinant human PAD4; test: ELISA, coated human PAD4; antibody 0.0039063 ug/mL
[29] = target: T23, full-length recombinant mouse PAD4; test: ELISA, coated mouse PAD4; antibody 0.0002441 ug/mL
[30] = target: T23, full-length recombinant mouse PAD4; test: ELISA, coated mouse PAD4; antibody 6.104E-05 ug/mL
[31] = target: T24, full-length recombinant human PAD4; test: SPR (Biacore T200), antibody captured, human PAD4 analyte
Experimental: Biacore (GE Healthcare, Biacore T200) was carried out to evaluate the affinity of A11 etc., toward human PAD4. A Mouse Antibody Capture kit (GE Healthcare, BR-1008-38) was used for the affinity assay. Specifically, in accordance with the standard protocol provided by the manufacture, NHS/EDC was used and an amine coupling method, in which a free carboxyl group is fixed on a surface of a CM5 chip, was used to immobilize a rabbit anti-mouse polyclonal antibody on the surface of a CM5 chip. Next, A11 etc., were each captured by the rabbit anti-mouse polyclonal antibody. L207 was likewise captured. Then, human PAD4 at each concentration was subjected to Biacore T200 measurement to create a kinetic sensorgram.

T23 sequence (Q9Z183 whole entry): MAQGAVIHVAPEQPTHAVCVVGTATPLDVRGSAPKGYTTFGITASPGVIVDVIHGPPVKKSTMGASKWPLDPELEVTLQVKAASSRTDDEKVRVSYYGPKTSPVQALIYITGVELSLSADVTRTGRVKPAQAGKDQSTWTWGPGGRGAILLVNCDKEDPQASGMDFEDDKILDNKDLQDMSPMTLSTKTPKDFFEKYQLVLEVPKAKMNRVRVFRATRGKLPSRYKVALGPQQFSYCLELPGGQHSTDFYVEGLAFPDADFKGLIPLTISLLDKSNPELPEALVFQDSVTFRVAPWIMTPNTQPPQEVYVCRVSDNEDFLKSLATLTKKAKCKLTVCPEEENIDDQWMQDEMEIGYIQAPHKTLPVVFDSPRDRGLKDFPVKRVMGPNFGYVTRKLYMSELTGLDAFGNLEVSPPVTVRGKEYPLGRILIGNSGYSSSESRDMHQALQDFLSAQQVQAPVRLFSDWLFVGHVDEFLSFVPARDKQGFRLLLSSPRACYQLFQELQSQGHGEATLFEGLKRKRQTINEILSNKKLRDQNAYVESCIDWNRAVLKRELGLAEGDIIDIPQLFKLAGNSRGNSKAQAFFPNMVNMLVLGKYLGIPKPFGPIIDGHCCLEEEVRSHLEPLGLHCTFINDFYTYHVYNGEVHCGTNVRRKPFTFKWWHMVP
T24 sequence (Q9UM07 whole entry): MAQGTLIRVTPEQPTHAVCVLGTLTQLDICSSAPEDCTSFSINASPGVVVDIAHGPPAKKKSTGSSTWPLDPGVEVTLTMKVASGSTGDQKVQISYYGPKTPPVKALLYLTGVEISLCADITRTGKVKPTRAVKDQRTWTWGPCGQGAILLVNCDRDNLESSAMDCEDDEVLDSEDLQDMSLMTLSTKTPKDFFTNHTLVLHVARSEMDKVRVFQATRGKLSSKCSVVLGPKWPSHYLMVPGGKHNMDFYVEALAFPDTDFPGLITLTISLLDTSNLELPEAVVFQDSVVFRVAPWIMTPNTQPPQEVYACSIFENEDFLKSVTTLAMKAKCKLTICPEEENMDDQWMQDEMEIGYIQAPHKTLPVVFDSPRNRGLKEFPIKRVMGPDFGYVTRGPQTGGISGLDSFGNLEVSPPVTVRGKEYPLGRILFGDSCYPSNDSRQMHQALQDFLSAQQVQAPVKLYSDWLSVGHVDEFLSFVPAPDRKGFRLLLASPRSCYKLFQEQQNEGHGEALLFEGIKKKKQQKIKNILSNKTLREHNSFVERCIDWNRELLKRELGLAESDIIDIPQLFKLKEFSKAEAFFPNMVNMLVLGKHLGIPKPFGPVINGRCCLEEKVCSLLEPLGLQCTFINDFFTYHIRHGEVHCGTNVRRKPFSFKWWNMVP

B1: A11 (antibody, V domains shown)
VH: AVTLDESGGGLQTPGGALSLVCKASGFDFSSYGMGWMRQAPGKGLEYVAAIRNDGSWTGYGAAVKGHATISRDNGQSTVRLQLNNLRAEDTGTYYCAKTTGSRGGSIDAWGHGTEVIVS
VL: ASTQPSSVSANLGGTVEITCSGGGRYYYGWYQQKSPGSAPVTVIYANDKRPSDIPSRFSGSKSGSTGTLTITGVQAEDEAVYFCGSAETSSYVFGAGTTLTVL
notes: Chicken variable regions in a mouse chimeric antibody (IgG1); also called anti-PAD4 antibody A11
- OD 490/630 nm [1]: 1.81
- OD 490/630 nm [2]: 1.95
- OD 490/630 nm [3]: 2
- OD 490/630 nm [4]: 2.05
- OD 490/630 nm [5]: 2.03
- OD 490/630 nm [6]: 1.67
- OD 490/630 nm [7]: 2.09
- OD 490/630 nm [8]: 0.021
- OD 490/630 nm [9]: 0.023
- OD 490/630 nm [10]: 1.91
- OD 490/630 nm [11]: 1.8
- OD 490/630 nm [12]: 1.89
- OD 490/630 nm [13]: 1.89
- OD 490/630 nm [14]: 1.85
- OD 490/630 nm [15]: 1.85
- OD 490/630 nm [16]: 1.88
- OD 490/630 nm [17]: 1.92
- OD 490/630 nm [18]: 1.98
- OD 490/630 nm [19]: 0.039
- OD 490/630 nm [20]: 1.25
- OD 490/630 nm [21]: 1.87
- OD 490/630 nm [22]: 1.89
- Relative citrullination activity [23]: 64 relative to PBS = 100
- OD 490/630 nm [24]: 2.24
- OD 490/630 nm [25]: 2.25
- OD 490/630 nm [26]: 2.15
- OD 490/630 nm [27]: 2.02
- OD 490/630 nm [28]: 1.31
- OD 490/630 nm [29]: 0.152
- OD 490/630 nm [30]: 0.045
- Kd [31]: 4.37 nM
- koff [31]: 0.000566 s⁻¹
- kon [31]: 129000 M⁻¹ s⁻¹

B2: G6 (antibody, V domains shown)
VH: B1 VH with D28T, G35E, M37V, H67R, N74D, V79L, G92A, R103S
VL: B1 VL with G14E, E17K, R25N, V43L, D53N, S86T, E88D, S90G, S91K
notes: Chicken variable regions in a mouse chimeric antibody (IgG1); also called anti-PAD4 antibody G6
- OD 490/630 nm [1]: 1.87
- OD 490/630 nm [2]: 1.91
- OD 490/630 nm [3]: 1.99
- OD 490/630 nm [4]: 1.95
- OD 490/630 nm [5]: 1.92
- OD 490/630 nm [6]: 1.77
- OD 490/630 nm [7]: 1.98
- OD 490/630 nm [8]: 0.042
- OD 490/630 nm [9]: 0.015
- OD 490/630 nm [10]: 1.85
- OD 490/630 nm [11]: 1.85
- OD 490/630 nm [12]: 1.92
- OD 490/630 nm [13]: 1.83
- OD 490/630 nm [14]: 1.86
- OD 490/630 nm [15]: 1.87
- OD 490/630 nm [16]: 1.87
- OD 490/630 nm [17]: 1.87
- OD 490/630 nm [18]: 1.92
- OD 490/630 nm [19]: 0.018
- OD 490/630 nm [20]: 1.73
- OD 490/630 nm [21]: 1.85
- OD 490/630 nm [22]: 1.88
- Relative citrullination activity [23]: 69 relative to PBS = 100
- OD 490/630 nm [24]: 2.27
- OD 490/630 nm [25]: 2.27
- OD 490/630 nm [26]: 2.12
- OD 490/630 nm [27]: 1.35
- OD 490/630 nm [28]: 1.16
- OD 490/630 nm [29]: 0.071
- OD 490/630 nm [30]: 0.044
- Kd [31]: 8.74 nM
- koff [31]: 0.000389 s⁻¹
- kon [31]: 44500 M⁻¹ s⁻¹

Other lines, results leading:

- OD 490/630 nm [1]: 1.85
- OD 490/630 nm [2]: 1.93
- OD 490/630 nm [3]: 1.96
- OD 490/630 nm [4]: 1.94
- OD 490/630 nm [5]: 2.03
- OD 490/630 nm [6]: 1.48
- OD 490/630 nm [7]: 1.98
- OD 490/630 nm [8]: 0.038
- OD 490/630 nm [9]: 0.253
- OD 490/630 nm [10]: 1.87
- OD 490/630 nm [11]: 1.88
- OD 490/630 nm [12]: 1.96
- OD 490/630 nm [13]: 1.87
- OD 490/630 nm [14]: 1.88
- OD 490/630 nm [15]: 1.89
- OD 490/630 nm [16]: 1.85
- OD 490/630 nm [17]: 1.88
- OD 490/630 nm [18]: 1.92
- OD 490/630 nm [19]: 0.019
- OD 490/630 nm [20]: 1.85
- OD 490/630 nm [21]: 1.89
- OD 490/630 nm [22]: 1.92
- Relative citrullination activity [23]: 68 relative to PBS = 100
- OD 490/630 nm [24]: 2.3
- OD 490/630 nm [25]: 2.25
- OD 490/630 nm [26]: 2.11
- OD 490/630 nm [27]: 2.21
- OD 490/630 nm [28]: 1.36
- OD 490/630 nm [29]: 0.181
- OD 490/630 nm [30]: 0.079
- Kd [31]: 3.16 nM
- koff [31]: 0.000284 s⁻¹
- kon [31]: 90000 M⁻¹ s⁻¹
B3: G9 (antibody, V domains shown)
VH: B1 VH with D28T, S31T, G33A, H67R, S71L, N84S, T99Y, R103S, D108G
VL: B1 VL with S2V, S6A
notes: Chicken variable regions in a mouse chimeric antibody (IgG1); also called anti-PAD4 antibody G9

- OD 490/630 nm [1]: 1.79
- OD 490/630 nm [2]: 1.89
- OD 490/630 nm [3]: 2
- OD 490/630 nm [4]: 1.92
- OD 490/630 nm [5]: 1.91
- OD 490/630 nm [6]: 1.38
- OD 490/630 nm [7]: 1.93
- OD 490/630 nm [8]: 0.047
- OD 490/630 nm [9]: 0.017
- OD 490/630 nm [10]: 1.9
- OD 490/630 nm [11]: 1.2
- OD 490/630 nm [12]: 1.91
- OD 490/630 nm [13]: 1.77
- OD 490/630 nm [14]: 1.82
- OD 490/630 nm [15]: 1.8
- OD 490/630 nm [16]: 1.83
- OD 490/630 nm [17]: 1.88
- OD 490/630 nm [18]: 1.9
- OD 490/630 nm [19]: 0.022
- OD 490/630 nm [20]: 1.34
- OD 490/630 nm [21]: 1.81
- OD 490/630 nm [22]: 1.85
- Relative citrullination activity [23]: 59 relative to PBS = 100
- OD 490/630 nm [24]: 2.23
- OD 490/630 nm [25]: 2.23
- OD 490/630 nm [26]: 2.12
- OD 490/630 nm [27]: 1.86
- OD 490/630 nm [28]: 1.36
- OD 490/630 nm [29]: 0.122
- OD 490/630 nm [30]: 0.051
- Kd [31]: 5.52 nM
- koff [31]: 0.000837 s⁻¹
- kon [31]: 152000 M⁻¹ s⁻¹
B4: E9 (antibody, V domains shown)
VH: B1 VH with A17T, A24G, D28T, A62S, H67R, G92A, T100S, R103S, I107V
VL: B1 VL
notes: Chicken variable regions in a mouse chimeric antibody (IgG1); also called anti-PAD4 antibody E9
